Assay results taken from patent publication US20240270857A1 (CHIA TAI TIANQING PHARMACEUTICAL GROUP, published 2024).
Positions count from the first letter of the chain named. Where two headings read alike, the source gives them in different places. One block for each binder: values may come before it.

What was measured:
[1] = biological target: T1, cynomolgus IL-36R overexpressed on 293T-CynoIL36R-NFκB cells (cynomolgus monkey); assay: FACS on 293T-CynoIL36R-NFκB cells, ratio of MFI to background MFI
T1 construct: Entry includes the signal peptide; also called monkey IL-36R
T1 chain: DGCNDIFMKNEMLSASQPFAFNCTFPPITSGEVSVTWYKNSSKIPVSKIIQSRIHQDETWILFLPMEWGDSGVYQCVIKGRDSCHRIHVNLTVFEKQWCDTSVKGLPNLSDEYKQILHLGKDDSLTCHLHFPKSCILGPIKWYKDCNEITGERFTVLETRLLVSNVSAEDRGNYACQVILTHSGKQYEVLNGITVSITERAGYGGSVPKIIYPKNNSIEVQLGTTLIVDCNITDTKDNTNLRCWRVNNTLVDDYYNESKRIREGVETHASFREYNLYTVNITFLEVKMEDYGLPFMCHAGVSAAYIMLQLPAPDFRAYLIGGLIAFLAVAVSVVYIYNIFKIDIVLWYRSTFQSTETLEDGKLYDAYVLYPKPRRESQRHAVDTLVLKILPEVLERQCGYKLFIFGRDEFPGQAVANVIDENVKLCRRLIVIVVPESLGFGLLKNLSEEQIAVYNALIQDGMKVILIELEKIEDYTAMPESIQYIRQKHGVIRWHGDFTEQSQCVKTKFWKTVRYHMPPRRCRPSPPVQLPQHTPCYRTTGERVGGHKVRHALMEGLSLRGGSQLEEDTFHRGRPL
Experimental: After the cells was washed with PBS, the cells were resuspended with 100 μL of PBS and then the fluorescence signal was detected using a flow cytometer (BD, Accuri C6). […] The ratio was the ratio of mean fluorescence intensity (MFI) of the experimental group/the background MFI, and the resulting data were analyzed using GraphPad Prism.
Affinity, binding and blocking assays for humanized antibodies hz72C1-1.1, hz72C1-1.2, hz72C1-1.3, hz72C1-2.1, hz72C1-2.2 and hz72C1-2.3 as well as hz84C4-1.1, hz84C4-1.2, hz84C4-1.3, hz84C4-1.4, hz84C4-1.5, hz84C4-2.1, hz84C4-2.2, hz84C4-2.3, hz84C4-2.4 and hz84C4-2.5 were performed according to the methods of Example 4, Example 5. Example 6, Example 7 and Example 8.

[2] = biological target: T2, IL-36R naturally expressed on OVCAR8 cells and on normal human epidermal keratinocytes (NHK cells) (human, UniProt Q9HB29 20-575); assay: cell-based or functional assay
T2 sequence (looked up): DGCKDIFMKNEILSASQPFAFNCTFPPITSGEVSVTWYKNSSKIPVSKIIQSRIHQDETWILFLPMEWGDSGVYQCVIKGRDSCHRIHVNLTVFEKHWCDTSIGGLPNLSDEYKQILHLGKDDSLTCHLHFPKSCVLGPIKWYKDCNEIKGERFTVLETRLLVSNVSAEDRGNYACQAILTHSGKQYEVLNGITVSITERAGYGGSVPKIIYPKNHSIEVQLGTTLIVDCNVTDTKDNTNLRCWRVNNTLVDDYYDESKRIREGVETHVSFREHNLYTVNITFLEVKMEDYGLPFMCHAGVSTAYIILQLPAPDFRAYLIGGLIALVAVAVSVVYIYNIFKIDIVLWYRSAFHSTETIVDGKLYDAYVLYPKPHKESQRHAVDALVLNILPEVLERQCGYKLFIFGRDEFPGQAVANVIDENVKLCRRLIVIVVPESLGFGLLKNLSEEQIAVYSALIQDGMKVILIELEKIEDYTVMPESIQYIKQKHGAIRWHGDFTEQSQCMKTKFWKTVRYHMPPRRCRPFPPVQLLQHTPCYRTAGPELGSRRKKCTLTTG

[3] = biological target: T2, IL-36R naturally expressed on OVCAR8 …; assay: cell-based or functional assay; remark: listed apart in the source

EC50 [1]: 9.22 nM
IC50 (M); hIL36αβγ; IL-8 production [2]: 5.33e-12 M
IC50 (M); hIL36γ; IL-8 production [2]: ~6.46e-12 M
Maximum inhibition rate %; hIL36α; IL-8 production [2]: 20.6%
Maximum inhibition rate %; hIL36αβγ; IL-8 production [2]: 44.2%
Maximum inhibition rate %; hIL36β; IL-8 production [2]: 21.8%
Maximum inhibition rate %; hIL36γ; IL-8 production [2]: 59.5%
IC50 (M); hIL36α; IL-8 production [3]: ~2.41e-09 M
IC50 (M); hIL36αβγ; IL-8 production [3]: ~6.51e-12 M
IC50 (M); hIL36β; IL-8 production [3]: ~1.43e-09 M
IC50 (M); hIL36γ; IL-8 production [3]: 2.13e-09 M
Maximum inhibition rate %; hIL36α; IL-8 production [3]: 16.9%
Maximum inhibition rate %; hIL36αβγ; IL-8 production [3]: 40.7%
Maximum inhibition rate %; hIL36β; IL-8 production [3]: 19.4%
Maximum inhibition rate %; hIL36γ; IL-8 production [3]: 57.5%
B1: hz84C4-1.3 (antibody, human IgG4 S228P, kappa, V domains shown)
VH: QVQLVQSGAEVKKPGASVKVSCKASGYFFTSYWMNWVRQAPGQGLEWMGMIYPYDSETRYAQKFQGRVTMTVDKSTSTVYMELSSLRSEDTAVYYCASSTTAFAYWGQGTLVTVSS
VL: DIQMTQSPSSLSASVGDRVTITCRASQDIGNALNWYQQKPGKAPKRLIYATSSLDPGVPSRFSGSRSGTDFTLTISSLQPEDFATYYCLQYASSPYTFGQGTKVEIKR
notes: Humanized, human IgG4 / kappa

EC50 [1]: 10.5 nM
IC50 (M); hIL36α; IL-8 production [2]: 8.48e-12 M
IC50 (M); hIL36αβγ; IL-8 production [2]: 7.24e-12 M
IC50 (M); hIL36β; IL-8 production [2]: 1.06e-11 M
IC50 (M); hIL36γ; IL-8 production [2]: 5.29e-12 M
Maximum inhibition rate %; hIL36α; IL-8 production [2]: 99.5%
Maximum inhibition rate %; hIL36αβγ; IL-8 production [2]: 99.3%
Maximum inhibition rate %; hIL36β; IL-8 production [2]: 99.2%
Maximum inhibition rate %; hIL36γ; IL-8 production [2]: 99.6%
IC50 (M); hIL36α; IL-8 production [3]: 2.87e-11 M
IC50 (M); hIL36αβγ; IL-8 production [3]: 2.77e-11 M
IC50 (M); hIL36β; IL-8 production [3]: 1.55e-11 M
IC50 (M); hIL36γ; IL-8 production [3]: 1.27e-11 M
Maximum inhibition rate %; hIL36α; IL-8 production [3]: 101%
Maximum inhibition rate %; hIL36αβγ; IL-8 production [3]: 97%
Maximum inhibition rate %; hIL36β; IL-8 production [3]: 101%
Maximum inhibition rate %; hIL36γ; IL-8 production [3]: 109%
B2: hz84C4-1.5 (antibody, human IgG4 S228P, kappa, V domains shown)
VH: B1 VH with A24V, R38N, Y52H, Y60L, Q65K
VL: B1 VL
notes: Humanized, human IgG4 / kappa

EC50 [1]: 48.2 nM
IC50 (M); hIL36α; IL-8 production [2]: 7.52e-12 M
IC50 (M); hIL36αβγ; IL-8 production [2]: 2.58e-12 M
IC50 (M); hIL36β; IL-8 production [2]: 7.24e-12 M
IC50 (M); hIL36γ; IL-8 production [2]: 5.15e-12 M
Maximum inhibition rate %; hIL36α; IL-8 production [2]: 99.5%
Maximum inhibition rate %; hIL36αβγ; IL-8 production [2]: 98.8%
Maximum inhibition rate %; hIL36β; IL-8 production [2]: 99.1%
Maximum inhibition rate %; hIL36γ; IL-8 production [2]: 99.3%
IC50 (M); hIL36α; IL-8 production [3]: 4.68e-11 M
IC50 (M); hIL36αβγ; IL-8 production [3]: 1.57e-10 M
IC50 (M); hIL36β; IL-8 production [3]: 6.52e-11 M
IC50 (M); hIL36γ; IL-8 production [3]: 1.12e-11 M
Maximum inhibition rate %; hIL36α; IL-8 production [3]: 95%
Maximum inhibition rate %; hIL36αβγ; IL-8 production [3]: 95.6%
Maximum inhibition rate %; hIL36β; IL-8 production [3]: 92.7%
Maximum inhibition rate %; hIL36γ; IL-8 production [3]: 101%
B3: hz84C4-2.4 (antibody, human IgG4 S228P, kappa, V domains shown)
VH: B1 VH with F28Y, Y52H, Y60L, Q65K
VL: B1 VL with Y36L, F71Y
notes: Humanized, human IgG4 / kappa

EC50 [1]: 11.9 nM
IC50 (M); hIL36α; IL-8 production [2]: 6.45e-12 M
IC50 (M); hIL36αβγ; IL-8 production [2]: 4.01e-12 M
IC50 (M); hIL36β; IL-8 production [2]: 7.06e-12 M
IC50 (M); hIL36γ; IL-8 production [2]: 6.62e-12 M
Maximum inhibition rate %; hIL36α; IL-8 production [2]: 100%
Maximum inhibition rate %; hIL36αβγ; IL-8 production [2]: 99.2%
Maximum inhibition rate %; hIL36β; IL-8 production [2]: 99.4%
Maximum inhibition rate %; hIL36γ; IL-8 production [2]: 99.7%
IC50 (M); hIL36α; IL-8 production [3]: 4.81e-11 M
IC50 (M); hIL36αβγ; IL-8 production [3]: 6.61e-11 M
IC50 (M); hIL36β; IL-8 production [3]: 1.24e-11 M
IC50 (M); hIL36γ; IL-8 production [3]: 8.4e-12 M
Maximum inhibition rate %; hIL36α; IL-8 production [3]: 99.7%
Maximum inhibition rate %; hIL36αβγ; IL-8 production [3]: 98.5%
Maximum inhibition rate %; hIL36β; IL-8 production [3]: 102%
Maximum inhibition rate %; hIL36γ; IL-8 production [3]: 103%
B4: hz84C4-2.5 (antibody, human IgG4 S228P, kappa, V domains shown)
VH: B1 VH with A24V, R38N, Y52H, Y60L, Q65K
VL: B1 VL with Y36L, F71Y
notes: Humanized, human IgG4 / kappa
